Experimental data reported in patent US20250090676A1 (SUTRO BIOPHARMA, published 2025).

Assays:
[1] = target: T1, cynomolgus monkey folate receptor alpha (cynomolgus monkey, UniProt P15328 25-234 (human entry)); test: FACS, CHO-cFOLR1 cells
T1 construct: Expressed on the surface of stably transfected CHO cells; also called cyno FolR1; CHO-cyno FolR1
Experimental: (§1) CHO cells were transfected to stably express human (CHO-hFOLR1), cynomolgus (CHO-cFOLR1), or mouse (CHO-mFOLR1) target molecule FOLR1 on the cell surface. Parental CHO cells were used as a negative control to determine background binding levels. Parental CHO and stably transfected CHO-hFOLR1, CHO-cFOLR1, and CHO-mFOLR1 cells were cultured in Ham's F-12: high glucose DMEM (50:50) (Corning, Cellgro-Mediatech) supplemented with 10% heat-inactivated fetal bovine serum (Corning, Cellgro-Mediatech), 1% Penicillin/Streptomycin (Corning, Cellgro-Mediatech) and 2 mmol/L-glutamax (Life Technology).
(§2) A mixture of fluoresecent-labeled parental CHO cells and unlabeled CHO-hFOLRlcells were prepared as follows. Parental CHO cells were washed twice in PBS and incubated in PBS containing with 1 nM CellTrace™ Oregon Green488® (Life Technologies) at 37° C. for 30 minutes. Labeled parental CHO cells were then washed 2× with Ham's F-12 media and 2× with FACS buffer (PBS with 1% bovine serum albumin). Unlabeled CHO-hFOLR1 cells were similarly washed and prepared. Labeled parental CHO and unlabeled CHO-hFOLR1 cells were combined at 1:1 ratio and seeded at 50 μL per well (200,000 cells per well) in 96 well polypropylene plates. Cells were mixed with 50 μL of test antibodies (i.e., anti-FOLR1 variants) serially diluted in FACS buffer and incubated on ice for 60 mins. […] Data were analyzed using FlowJo® software (FlowJo, LLC; Ashland, OR) to determine mean fluorescence intensities. Binding constants were calculated using the statistical software, GraphPad Prism (GraphPad Software; La Jolla, CA) using the nonlinear regression equation, one site-specific binding with Hill slope. Secondary antibody alone was used as a control, in addition to measuring non-specific antibody binding to CHO parental cells.

[2] = target: T2, human folate receptor alpha (hFOLR1) (human, UniProt P15328 25-234); test: FACS, CHO-hFOLR1 cells;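 further: flow cytometry of serially diluted antibodies binding CHO cells stably expressing the receptor, 60 min on ice, mixed with dye-tagged parental CHO as background control, one-site specific fit with Hill slope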
T2 construct: endogenous on FOLR1-positive KB and Igrov1 cells (cell killing); also called human FolR1; FolRα
T2 sequence (P15328 25-234 limits assumed): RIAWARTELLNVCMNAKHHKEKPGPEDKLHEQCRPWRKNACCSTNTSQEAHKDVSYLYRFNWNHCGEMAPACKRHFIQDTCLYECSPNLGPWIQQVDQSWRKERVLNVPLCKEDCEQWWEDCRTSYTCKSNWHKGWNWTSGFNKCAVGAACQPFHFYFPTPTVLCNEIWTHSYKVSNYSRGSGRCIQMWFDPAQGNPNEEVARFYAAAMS
Experimental: as §1, §2

[3] = target: T2, human folate receptor alpha (hFOLR1); test: cell-based or functional assay
[4] = target: T3, murine folate receptor alpha (mouse, UniProt P35846 25-232); test: FACS, CHO-mFOLR1 cells;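 further: flow cytometry binding of serially diluted test antibodies to transfected CHO cells on ice, mean fluorescence intensity, parental CHO cells give background, Kd from one-site specific binding fit with Hill slope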
T3 construct: Expressed on the surface of stably transfected CHO cells; also called mouse FolR1; CHO-mouse FolR1
T3 sequence (P35846 25-232 limits assumed): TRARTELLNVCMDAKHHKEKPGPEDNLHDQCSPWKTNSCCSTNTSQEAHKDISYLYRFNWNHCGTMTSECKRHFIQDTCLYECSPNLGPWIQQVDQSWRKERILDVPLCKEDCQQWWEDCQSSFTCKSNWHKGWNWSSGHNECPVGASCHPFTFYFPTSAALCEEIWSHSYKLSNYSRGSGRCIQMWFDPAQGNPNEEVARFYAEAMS

human FOLR1-HIS = target: T4, human FOLR1-HIS (human, UniProt P15328 25-233); test: SPR (Biacore), antibody captured on anti-Fc, human FOLR1-HIS analyte, 25 C
T4 construct: Analyte of the Biacore assay; also called FolRα-ECD; extracellular domain of FOLR1; not shown: HIS tag
T4 sequence (P15328 25-233 limits assumed): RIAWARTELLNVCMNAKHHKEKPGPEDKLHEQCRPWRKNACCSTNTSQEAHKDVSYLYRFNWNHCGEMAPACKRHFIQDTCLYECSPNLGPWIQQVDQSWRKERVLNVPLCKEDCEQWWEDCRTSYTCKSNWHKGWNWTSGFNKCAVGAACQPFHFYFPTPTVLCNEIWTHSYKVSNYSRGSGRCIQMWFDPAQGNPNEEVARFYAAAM

T1 sequence (P15328 other isoform, or with tags, fused parts or gaps limits assumed): as the sequence (P15328 25-234 limits assumed) above, with I2T, W4R, R37K, Q117R, A146P, H171Y counted along it

| Binder | Bmax (MFI) [1] | Kd [1] | Bmax (MFI) [2] | Kd [2] | Igrov, 2° Antibody Cell Killing, Nb-SC239: EC50 [3] | Igrov, 2° Antibody Cell Killing, Nb-SC239: Span [3] | KB, 2° Antibody Cell Killing, Nb-239: EC50 [3] | KB, 2° Antibody Cell Killing, Nb-239: Span [3] | Bmax (MFI) [4] | Kd [4] | binding result [4] | Kd (human FOLR1-HIS) | koff (human FOLR1-HIS) | kon (human FOLR1-HIS) |
| --- | --- | --- | --- | --- | --- | --- | --- | --- | --- | --- | --- | --- | --- | --- |
| SRP1848-A01 (antibody, V domains shown, HC variant paired with trastuzumab LC, cell-free expressed, HIS- and FLAG-tagged; also called Antibody 1) VH: EVQLVESGGGLVQPGGSLRLSCAASGFNITRYSIHWVRQAPGKGLEWVAGILPESGGTSYADSVKGRFTISADTSKNTAYLQMNSLRAEDTAVYYCARHIYPWDWFSNYVLDYWGQGTLVTVSS VL: not shown | 22600 MFI | 0.44 nM | 25900 MFI | 0.39 nM | 0.015 nM | 71% | 0.064 nM | 94% | 16500 MFI | 0.8 nM | – | – | – | – |
| SRP1848-F04 (antibody, V domains shown, HC variant paired with trastuzumab LC, cell-free expressed, HIS- and FLAG-tagged; also called Antibody 39) VH: EVQLVESGGGLVQPGGSLRLSCAASGFNISNYSIHWVRQAPGKGLEWVGEIYPIDGITDYADSVKGRFTISADTSKNTAYLQMNSLRAEDTAVYYCARGSWFWRSGYGYYLDYWGQGTLVTVSS VL: not shown | 26400 MFI | 0.55 nM | 26900 MFI | 0.73 nM | 0.015 nM | 73% | 0.096 nM | 93% | 2740 MFI | 11 nM | – | – | – | – |
| SRP1848-A04 (antibody, V domains shown, HC variant paired with trastuzumab LC, cell-free expressed, HIS- and FLAG-tagged; also called Antibody 3) VH: EVQLVESGGGLVQPGGSLRLSCAASGFNIDQSSIHWVRQAPGKGLEWVGVIYPVDGTTDYADSVKGRFTISADTSKNTAYLQMNSLRAEDTAVYYCARGAWSWRSGYGYYIDYWGQGTLVTVSS VL: not shown | 23100 MFI | 0.3 nM | 26800 MFI | 0.43 nM | 0.015 nM | 64% | 0.052 nM | 92% | 3890 MFI | 2 nM | – | – | – | – |
| SRP1848-A06 (antibody, V domains shown, HC variant paired with trastuzumab LC, cell-free expressed, HIS- and FLAG-tagged; also called Antibody 4) VH: EVQLVESGGGLVQPGGSLRLSCAASGFNIGNSYIHWVRQAPGKGLEWVGGITPIDGNTDYADSVKGRFTISADTSKNTAYLQMNSLRAEDTAVYYCARGAWSWRSGYGYYIDYWGQGTLVTVSS VL: not shown | 20200 MFI | 0.3 nM | 24500 MFI | 0.47 nM | – | 72% | 0.046 nM | 93% | 2770 MFI | 2.4 nM | – | – | – | – |
| SRP1848-A07 (antibody, V domains shown, HC variant paired with trastuzumab LC, cell-free expressed, HIS- and FLAG-tagged; also called Antibody 5) VH: EVQLVESGGGLVQPGGSLRLSCAASGFNIGYHSIHWVRQAPGKGLEWVGEIFPVDGTTDYADSVKGRFTISADTSKNTAYLHMNSLRAEDTAVYYCARGFWAWRSGYGYYLDYWGQGTLVTVSS VL: not shown | 23600 MFI | 0.43 nM | 29200 MFI | 0.61 nM | 0.029 nM | 68% | 0.062 nM | 95% | 9650 MFI | 0.9 nM | – | – | – | – |
| SRP1848-A08 (antibody, V domains shown, HC variant paired with trastuzumab LC, cell-free expressed, HIS- and FLAG-tagged; also called Antibody 6) VH: EVQLVESGGGLVQPGGSLRLSCAASGSNIRKHSIHWVRQAPGKGLEWVGSIYPNDGTTDYADSVKGRFTISADTSKNTAYLQMNSLRAEDTAVYYCARGSWFWRAGYGYYLDYWGQGTLVTVSS VL: not shown | 26200 MFI | 0.45 nM | 28600 MFI | 0.62 nM | 0.013 nM | 65% | 0.039 nM | 93% | 3200 MFI | 2.5 nM | – | – | – | – |
| SRP1848-A09 (antibody, V domains shown, HC variant paired with trastuzumab LC, cell-free expressed, HIS- and FLAG-tagged; also called Antibody 7) VH: EVQLVESGGGLVQPGGSLRLSCAASGFNIRKQSIHWVRQAPGKGLEWVGSIFPNDGTTDYADSVKGRFTISADTSKNTAYLQVNSLRAEDTAVYYCARGSWFWRSGYGYFLEYWGQGTLVTVSS VL: not shown | 20200 MFI | 0.31 nM | 28900 MFI | 0.61 nM | 0.026 nM | 71% | – | 93% | 7990 MFI | 1 nM | – | – | – | – |
| SRP1848-A10 (antibody, V domains shown, HC variant paired with trastuzumab LC, cell-free expressed, HIS- and FLAG-tagged; also called Antibody 8) VH: EVQLVESGGGLVQPGGSLRLSCAASGFNIRKYSIHWARQAPGKGLEWVGDIFPIDDITDYADSVKGRFTISADTSKNTAYLQMNSLRAEDTAVYYCARGSWSWPSGHSYYLDYWGQGTLVTVSS VL: not shown | 14800 MFI | 0.47 nM | 27100 MFI | 0.66 nM | 0.027 nM | 75% | 0.033 nM | 96% | 10200 MFI | 1.2 nM | – | – | – | – |
| SRP1848-B01 (antibody, V domains shown, HC variant paired with trastuzumab LC, cell-free expressed, HIS- and FLAG-tagged; also called Antibody 9) VH: EVQLVESGGGLVQPGGSLRLSCAASGFNIRNYSIHWVRQAPGKGLEWVGEIYPVDGITDYADSVKGRFTISADTSKNTAYLQMNSLRAEDTAVYYCARGFWSWPSGYSYFLDYWGQGTLVTVSS VL: not shown | 23900 MFI | 0.83 nM | 26600 MFI | 1.06 nM | 0.031 nM | 82% | 0.064 nM | 95% | 3400 MFI | 16.4 nM | – | – | – | – |
| SRP1848-B03 (antibody, V domains shown, HC variant paired with trastuzumab LC, cell-free expressed, HIS- and FLAG-tagged; also called Antibody 10) VH: EVQLVESGGGLVQPGGSLRLSCAASGFNISMKYIHWVRQAPGKGLEWVGGITPIDGMTDYADSVKGRFTISADTSKNTAYLQMNSLRAEDTAVYYCARGSWSWPSGYSYYLDYWGQGTLVTVSS VL: not shown | 17200 MFI | 0.41 nM | 26300 MFI | 0.82 nM | 0.028 nM | 66% | 0.05 nM | 94% | 2720 MFI | 6.4 nM | – | – | – | – |
| SRP1848-B04 (antibody, V domains shown, HC variant paired with trastuzumab LC, cell-free expressed, HIS- and FLAG-tagged; also called Antibody 11) VH: EVQLVESGGGLVQPGGSLRLSCAASSFNISNHSIHWVRQAPGKGLEWVGEIYPVDGITDYADSVKGRFTISADTSKNTAYLQMNSLRAEDTAVYYCARGRYSWRAGYSYYLDYWGQGTLVTVSS VL: not shown | 27800 MFI | 0.65 nM | 27800 MFI | 0.72 nM | 0.018 nM | 70% | 0.035 nM | 94% | 2190 MFI | 17.9 nM | – | – | – | – |
| SRP1848-B05 (antibody, V domains shown, HC variant paired with trastuzumab LC, cell-free expressed, HIS- and FLAG-tagged; also called Antibody 12) VH: EVQLVESGGGLVQPGGSLRLSCAASGFNISNYYIHWVRQAPGKGLEWVGGISPIDGYTDYADSMKGRFTISADTSKNTAYLQMSSLRAEDTAVYYCARGSWFWQSGYGYYLDYWGQGTLVTVSS VL: not shown | 21900 MFI | 0.64 nM | 24500 MFI | 0.65 nM | 0.04 nM | 72% | 0.065 nM | 94% | – | – | no binding | – | – | – |
| SRP1848-D03 (antibody, V domains shown, IgG with common trastuzumab LC, cell-free expressed, HIS- and FLAG-tagged; also called Antibody 25) VH: EVQLVESGGGVVQPGGSLRLSCAASGFNIRYFSIHWVRQAPGKGLEWVGDIFPNDGSTDYADSVKGRFTISADTSKNTAYLQMNSLRAEETAVYYCARGHWSWPSGYWYYLDYWGQGTLVTVSS VL: not shown | – | – | – | – | – | – | – | – | – | – | – | 5.19 nM | – | – |
| SRP1848-G04 (antibody, V domains shown, IgG with common trastuzumab LC, cell-free expressed, HIS- and FLAG-tagged; also called Antibody 49) VH: EVQLVESGGGLVQPGGSLRLSCAASGFNIHSTDIHWVRQAPGKGLEWVAYITPAGGATFYADSVKGRFTISADTSKNTAYLQMNSLRAEDTAVYYCARYPYWFAGYMDYWGQGTLVTVSS VL: not shown | – | – | – | – | – | – | – | – | – | – | – | 6.4 nM | 0.00379 s⁻¹ | 591000 M⁻¹ s⁻¹ |
| SRP1848-G06 (antibody, V domains shown, IgG with common trastuzumab LC, cell-free expressed, HIS- and FLAG-tagged; also called Antibody 50) VH: EVQLVESGGGLVQPGGSLRLSCAASGFNIRSTDIHWVRQAPGKGLEWVAYITPAGGATYYADNVKGRFTISADTSKNTAYLQMNSLRAEDTAVYYCARQPYWFAGYMDYWGQGTLVTVSS VL: not shown | – | – | – | – | – | – | – | – | – | – | – | 6.7 nM | 0.00381 s⁻¹ | 569000 M⁻¹ s⁻¹ |
| SRP1848-G07 (antibody, V domains shown, IgG with common trastuzumab LC, cell-free expressed, HIS- and FLAG-tagged; also called Antibody 51) VH: EVQLVESGGGLVQPGGSLRLSCAASGFNIHSTDIHWVRQAPGKGLEWVAYITPAGGATWYADSVKGRFTISADTSKNTAYLQMNSLRAEDTAVYYCARYPFWFAGYMDYWGQGTLVTVSS VL: not shown | – | – | – | – | – | – | – | – | – | – | – | 7.45 nM | 0.00451 s⁻¹ | 605000 M⁻¹ s⁻¹ |
| SRP1848-G09 (antibody, V domains shown, IgG with common trastuzumab LC, cell-free expressed, HIS- and FLAG-tagged; also called Antibody 52) VH: EVQLVESGGGLVQPGGSLRLSCAASGFNIRGTDIHWVRQAPGKGLEWVAYITPAGGATFYADSVKGRFTISADTSKNTAYLQMNSLRAEDTAVYYCARHEYWFSGYMDYWGQGTLVTVSS VL: not shown | – | – | – | – | – | – | – | – | – | – | – | 7.56 nM | 0.00646 s⁻¹ | 856000 M⁻¹ s⁻¹ |
| SRP1848-G10 (antibody, V domains shown, IgG with common trastuzumab LC, cell-free expressed, HIS- and FLAG-tagged; also called Antibody 53) VH: EVQLVESGGGLVQPGSSLRLSCAASGFNIRSTDIHWVRQAPGKGLEWVAYITPAGGATYYADSVKGRFTISADTSKNTAYLQMNSLRAEDTAVYYCARYPYWFAGYIDYWGQGTLVTVSS VL: not shown | – | – | – | – | – | – | – | – | – | – | – | 4.55 nM | 0.00345 s⁻¹ | 758000 M⁻¹ s⁻¹ |
| SRP1848-G11 (antibody, V domains shown, IgG with common trastuzumab LC, cell-free expressed, HIS- and FLAG-tagged; also called Antibody 54) VH: EVQLVESGGGLVQPGGSLRLSCAASGFNISSTDIHWVRQAPGKGLEWVAYITPAGGATWYADSVKGRFTISADTSKNTAYLQMNSLRAEDTAVYYCARYPYWFSGYMDYWGQGTLVTVSS VL: not shown | – | – | – | – | – | – | – | – | – | – | – | 9.14 nM | 0.00637 s⁻¹ | 696000 M⁻¹ s⁻¹ |
